From article PMC13376213 (2026)

T1: HIF1A (Homo sapiens (Human), UniProt Q16665)
T1 chain: PYIPMDDDFQLRSFDQLS

T2: CCDC88B (Homo sapiens (Human), UniProt A6NC98)
T2 chain: QLEEELFQLRQGPAG

T3: MFSD2B (Homo sapiens (Human), UniProt A6NFX1)
T3 chain: DVVDDFQLQHRHGPG

T4: USP19 (Homo sapiens (Human), UniProt O94966)
T4 chain: PFQPGRMALESQSPG

T5: ROBO1 (Homo sapiens (Human), UniProt Q9Y6N7)
T5 chain: AQSKTQLEVRPV

T6: IRAG1 (Homo sapiens (Human), UniProt Q9Y6F6)
T6 chain: TNSSGKMALNSPQPG

T7: CEP192 (Homo sapiens (Human), UniProt Q8TEP8)
T7 chain: LQPSSKASLESTSDL


Key:
Assay in all cases: FP displacement
HIF1A = molecular target: T1, HIF1A
CCDC88B = molecular target: T2, CCDC88B
MFSD2B = molecular target: T3, MFSD2B
USP19 = molecular target: T4, USP19
ROBO1 = molecular target: T5, ROBO1
IRAG1 = molecular target: T6, IRAG1
CEP192 = molecular target: T7, CEP192

Row | Kd (HIF1A) | Kd (CCDC88B) | Kd (MFSD2B) | Kd (USP19) | Kd (ROBO1) | Kd (IRAG1) | Kd (CEP192) | Binder
1 | 1.5 µM | 40.1 µM | 0.75 µM | – | – | – | – | USP33 (protein) HLYICHTCQIEAEKIEKRRKTELEIFIRLNRAFQKEDSPATFYCISMQWFREWESFVKGKDGDPPGPIDNTKIAVTKCGNVMLRQGADSGQISEETWNFLQSIYGGGPEVILRPPV
2 | – | – | – | 40.6 µM | 14 µM | 7.86 µM | 14.1 µM | USP33 (protein) RNHCPHLDSVGEITKEDLIQKSLGTCQDCKVQGPNLWACLENRCSYVGCGESQVDHSTIHSQETKHYLTVNLTTLRVWCYACSKEVFLDRKLGTQ
